Target: ARTD2WGR-RD-ART (Homo sapiens, UniProt Q9UGN5 90-583)
Experiment: X-ray crystallography

ARTD2WGR-RD-ART, sequence (Q9UGN5 90-583): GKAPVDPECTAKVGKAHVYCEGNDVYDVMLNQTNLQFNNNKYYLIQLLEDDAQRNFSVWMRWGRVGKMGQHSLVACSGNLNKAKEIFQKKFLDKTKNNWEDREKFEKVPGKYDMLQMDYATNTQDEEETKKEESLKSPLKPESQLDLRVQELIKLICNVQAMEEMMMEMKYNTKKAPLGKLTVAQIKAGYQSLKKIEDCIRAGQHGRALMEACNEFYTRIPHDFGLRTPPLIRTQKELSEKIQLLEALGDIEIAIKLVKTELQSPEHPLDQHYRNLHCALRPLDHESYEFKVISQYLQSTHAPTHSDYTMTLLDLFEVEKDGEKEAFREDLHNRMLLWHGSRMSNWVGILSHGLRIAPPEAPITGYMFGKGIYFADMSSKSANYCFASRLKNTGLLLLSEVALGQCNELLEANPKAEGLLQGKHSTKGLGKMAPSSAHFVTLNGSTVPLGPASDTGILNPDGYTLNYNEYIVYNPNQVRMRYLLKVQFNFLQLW

B1: DNA-1 (dsDNA)
DNA 1: GACGACCCGGAGCACA
DNA 2: TGTGCTCCGGGTCGTC
modifications: 5'-phosphate on forward strand
binding result: binds

From paper doi:10.1101/2020.11.24.395475
